The values that follow come from patent publication US20210253711A1.

This test addresses MICA antigen of Table 2 (purified 6×His-MICA*08 or 6×His-MICA*04) (UniProt Q29983). The test is described as follows: BLI (Octet Red96), mAb captured on anti-mouse IgG Fc biosensors, His-tagged MICA in solution, 1:1 model. Background: Biolayer interferometry detects binding as a change in optical thickness at a sensor tip.

B1: 16F10.C12 (antibody, V domains shown)
VH: EVQLQESGPGLVAPSQSLSITCTVSGFSLTAFGVNWVRQPPGKGLEWLGMIWGDGNTDYNSTLRSRLSISKDNSKSQVFLKLNSLQTDDTARYFCARETYYGNYAGLGYWGQGTLVTVSA
VL: QIVLTQSPAIMSASIGERVTMTCTASSSVSSNYLHWYQQKPRSSPKLWIYTTSNLASGVPTRFSGSGSGTSYSLTISSMEAEDAATYYCHQFHRSPFTFGSGTKLEIK
Regarding B1, the Kd came out at 6.45 nM, the koff was found to be 0.000548 s⁻¹ and the association rate constant (kon) turned out to be 93300 M⁻¹ s⁻¹.

B2: 3F9.E4 (antibody, V domains shown)
VH: EVQLQESGEGLVKPGGSLKLSCAASGFTFSNYAMSWVRQTPEKRLEWVAYISPGGDYIYYADTVKGRFTISRDNARNTLYLQMSSLKSEDTAMYYCTTDRRHYGSYAMDYWGQGISVTVSS
VL: DIVMTQAAPSVPVTPGESVSISCRSSKSLLHSNGNTYLYWFLQRPGQSPQLLIYRMSNLASGVPDRFSGSGSGTAFTLRISRVEAEDVGVYYCMQHLEYPFTFGSGTKLEIK
Regarding B2, the Kd worked out at 1.18 nM, the dissociation rate constant (koff) came out at 0.000421 s⁻¹ and the kon was determined as 383000 M⁻¹ s⁻¹.

Usually Kd stands for the equilibrium constant for the complex coming apart. Low readings indicate tighter binding, high ones weaker binding. By koff is commonly meant the first-order rate constant of dissociation. High values mean a short-lived complex, low ones a long-lived complex. As usually defined, the kon is a measure of how fast the partners come together. Lower therefore signals slow association.
